Here are results for three molecules from paper PMC2789969 (Archives of biochemistry and biophysics, 2009).

For orientation: stoichiometry N means a count of units in the complex or per binding partner. For orientation: Kd means the free concentration of one partner at which half of the binding sites on the other are occupied at equilibrium, for simple one-to-one binding. Read a low Kd as higher affinity.

To fix the notation:
B1: R369A EGK (enzyme, Escherichia coli, UniProt P0A6F3 1-502, looked up)
chain: MTEKKYIVALDQGTTSSRAVVMDHDANIISVSQREFEQIYPKPGWVEHDPMEIWATQSSTLVEVLAKADISSDQIAAIGITNQRETTIVWEKETGKPIYNAIVWQCRRTAEICEHLKRDGLEDYIRSNTGLVIDPYFSGTKVKWILDHVEGSRERARRGELLFGTVDTWLIWKMTQGRVHVTDYTNASRTMLFNIHTLDWDDKMLEVLDIPREMLPEVRRSSEVYGQTNIGGKGGTRIPISGIAGDQQAALFGQLCVKEGMAKNTYGTGCFMLMNTGEKAVKSENGLLTTIACGPTGEVNYALEGAVFMAGASIQWLRDEMKLINDAYDSEYFATKVQNTNGVYVVPAFTGLGAPYWDPYARGAIFGLTAGVNANHIIRATLESIAYQTRDVLEAMQADSGIRLHALRVDGGAVANNFLMQFQSDILGTRVERPEVREVTALGAAYLAGLAVGFWQNLDELQEKAVIEREFRPGIETTERNYRYAGWKKAVKRAMAWEEHDE
B2: A65T EGK (enzyme, Escherichia coli, UniProt P0A6F3 1-502, looked up)
chain: MTEKKYIVALDQGTTSSRAVVMDHDANIISVSQREFEQIYPKPGWVEHDPMEIWATQSSTLVEVLTKADISSDQIAAIGITNQRETTIVWEKETGKPIYNAIVWQCRRTAEICEHLKRDGLEDYIRSNTGLVIDPYFSGTKVKWILDHVEGSRERARRGELLFGTVDTWLIWKMTQGRVHVTDYTNASRTMLFNIHTLDWDDKMLEVLDIPREMLPEVRRSSEVYGQTNIGGKGGTRIPISGIAGDQQAALFGQLCVKEGMAKNTYGTGCFMLMNTGEKAVKSENGLLTTIACGPTGEVNYALEGAVFMAGASIQWLRDEMKLINDAYDSEYFATKVQNTNGVYVVPAFTGLGAPYWDPYARGAIFGLTRGVNANHIIRATLESIAYQTRDVLEAMQADSGIRLHALRVDGGAVANNFLMQFQSDILGTRVERPEVREVTALGAAYLAGLAVGFWQNLDELQEKAVIEREFRPGIETTERNYRYAGWKKAVKRAMAWEEHDE

Read-outs that look alike come from different tables or passages of the source.

The data set “AUC” deals with the molecule itself. As to the kind of experiment: AUC.
The target of data set [1] is T1, Escherichia coli glycerol kinase (Escherichia coli, UniProt P0A6F3 1-502). As to the kind of experiment: linked-functions initial-velocity enzyme kinetics.
Data set [2] has as its target B1. The data set is described as follows: linked-functions initial-velocity enzyme kinetics.
Data set [3] concerns the target B2. As to the kind of experiment: linked-functions initial-velocity enzyme kinetics.
Data set [4] deals with T1, Escherichia coli glycerol kinase. As to the kind of experiment: linked-functions initial-velocity enzyme kinetics. The source holds these as a separate data set.
Data set [5] concerns the target B1. As to the kind of experiment: linked-functions initial-velocity enzyme kinetics. This is another data set of the same source.
Data set [6] addresses B2. As to the kind of experiment: linked-functions initial-velocity enzyme kinetics. This is another data set of the same source.

Regarding B1, in “AUC”, the “stoichiometry N” value turned out to be 4.

As to B2, in “AUC”, the binding result is recorded as “binds”.

B3: IIA^Glc, the glucose-specific phosphocarrier protein of the phosphoenolpyruvate:glycose phosphotransferase system (natural protein)
chain: GLFDKLKSLVSDDKKDTGTIEIIAPLSGEIVNIEDVPDVVFAEKIVGDGIAIKPTGNKMVAPVDGTIGKIFETNHAFSIESDSGVELFVHFGIDTVELKGEGFKRIAEEGQRVKVGDTVIEFDLPLLEEKAKSTLTPVVISNMDEIKELIKLSGSVTVGETPVIRIKK
On to B3, for which the dissociation constant (Kd) in data set [1] came to 4.6 µM; with R369A EGK [2] it was 1.8 µM; with A65T EGK [3], 8 µM; in data set [4], 7 µM; in the data set with R369A EGK [5] it was 2 µM; in the data set with A65T EGK [6] it was 28 µM.
